Assay results published in patent US20100291048A1.

Assays:
ZFN 12281 (synthetic) = assay: cell_activity; conditions: K562, pair with 12290 (pairing inferred from adjacent sites), Surveyor assay
ZFN 12329 (synthetic) = assay: cell_activity; conditions: K562, pair with 12257 (pairing inferred from adjacent sites), Surveyor assay
ZFN 12273 (synthetic) = assay: cell_activity; conditions: K562, pair with 12270, Surveyor assay; 34.6% in enriched SupT1 pool, >40% in primary CD4 T cells
ZFN 12270 (synthetic) = assay: cell_activity; conditions: K562, pair with 12273, Surveyor assay; 34.6% in enriched SupT1 pool, >40% in primary CD4 T cells
HLA Class I [1] = assay: flow cytometry on SupT1 clone B4, PE anti-mouse IgG secondary
HLA Class I [2] = assay: flow cytometry on SupT1 clone A66, PE anti-mouse IgG secondary
HLA Class I [3] = assay: flow cytometry on SupT1 clone B13, PE anti-mouse IgG secondary
HLA Class I [4] = assay: flow cytometry on parental SupT1 cells, PE anti-mouse IgG secondary
[5] = target: CXCR4 isoform b, WT (352 a.a.) (human) (UniProt P61073); assay: as above
Chain of UniProt P61073 (P61073 whole entry, canonical isoform): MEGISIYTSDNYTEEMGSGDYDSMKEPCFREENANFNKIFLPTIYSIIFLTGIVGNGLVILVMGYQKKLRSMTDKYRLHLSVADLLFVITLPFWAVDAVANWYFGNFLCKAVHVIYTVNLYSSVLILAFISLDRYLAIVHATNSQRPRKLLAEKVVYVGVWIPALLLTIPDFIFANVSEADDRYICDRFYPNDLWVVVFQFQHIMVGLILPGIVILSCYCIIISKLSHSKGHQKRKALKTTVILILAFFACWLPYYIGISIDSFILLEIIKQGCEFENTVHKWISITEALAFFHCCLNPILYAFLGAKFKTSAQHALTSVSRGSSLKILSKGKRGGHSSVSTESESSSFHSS

ZFN 12290 (synthetic) = assay: cell_activity; conditions: K562, pair with 12281 (pairing inferred from adjacent sites), Surveyor assay
ZFN 12257 (synthetic) = assay: cell_activity; conditions: K562, pair with 12329 (pairing inferred from adjacent sites), Surveyor assay

Question: “CAGTTGATGCCGTGGCAAACTGGTACTT (double strand) [CXCR4 12281 target]” was tested. Which activity (ZFN 12281 (synthetic)) did it give?
Answer: > 20 % NHEJ

Question: “TTGGTGGCGTGGACGATGGCCAGGTAGC (double strand) [CXCR4 12329 target]” was tested. Which activity (ZFN 12329 (synthetic)) did it give?
Answer: > 20 % NHEJ

Question: Which activity (ZFN 12273 (synthetic)) does the source give for “GGGTAGAAGCGGTCACAGATATATCTGT (double strand) [CXCR4 12273 target]” here?
Answer: > 20 % NHEJ

Question: For “ATGACTTGTGGGTGGTTGTGTTCCAGTT (double strand) [CXCR4 12270 target]”, which activity (ZFN 12270 (synthetic)) is on record?
Answer: > 20 % NHEJ

Question: What does the source list for Anti-HLA Cl-I W6/32 (antibody)?
Answer: Mean Channel Fluorescence (HLA Class I [1]): 152; Mean Channel Fluorescence (HLA Class I [2]): 189; Mean Channel Fluorescence (HLA Class I [3]): 170; Mean Channel Fluorescence (HLA Class I [4]): 83

Question: For anti-CXCR4 mAb (12G5) (antibody), which Mean Channel Fluorescence [5] is on record?
Answer: 35

Question: Which activity (ZFN 12290 (synthetic)) does the source give for “CCAGAAGGGAAGCGTGATGACAAAGAGG (double strand) [CXCR4 12290 target]” here?
Answer: > 20 % NHEJ

Question: Which activity (ZFN 12257 (synthetic)) does the source give for “AGTCAGAGGCCAAGGAAGCTGTTGGCTG (double strand) [CXCR4 12257 target]” here?
Answer: > 20 % NHEJ

Question: How did the Mean Channel Fluorescence [5] turn out when anti-CXCR4 NT (4G10) (antibody) was run?
Answer: 136
